The source of these data is patent US20120027773A1 (AVEO PHARMACEUTICALS, published 2012).

For orientation: IC50 means the midpoint of a concentration-inhibition curve. Broadly, the Kd is the concentration at which binding is half-saturated. What is called koff is a measure of how fast the partners let go of each other. The term kon denotes a measure of how fast the partners come together.

The target of assay [1] is T1, human wild-type RON (cell surface) (human, UniProt Q04912 25-1400).
T1 construct: whole, on cells; also called Human RON; wt RON
The assay can be described thus: FACS, 10 ug/ml antibody, PC3 cells, 4 C. As for the experimental part: (§1) Binding to cell surface wild-type RON and delta 160 RON at 4° C. was determined for antibodies 07F01, 12B11, 17F06, 18H09, and 29B06, using FACS. Cells expressing wild-type RON (PC3), and cells expressing delta 160 RON (HT-29), were harvested using cell dissociation buffer (Invitrogen), washed twice with FACS buffer (0.5% BSA PBS) and treated with CytoQ Antibody diluent and FC receptor block (Innovex). Purified antibodies were diluted at a concentration of 10 μg/ml, in FACS buffer. Cells were incubated with 100 μl of antibody mix for one hour, washed with FACS buffer three times, and incubated for 45 minutes with goat anti-mouse PE conjugated antibody (Jackson Immunoresearch Laboratories). Cells were washed three times with FACS buffer, resuspended in 300 μl of FACS buffer and analyzed using a Beckman Coulter Cytomics FC 500 FACS instrument.
(In general: A flow cytometer gives signals particle by particle.)

The target in assay [2] is T2, delta 160 RON variant (cell surface) (human, UniProt Q04912 25-1400).
T2 construct: whole, on cells; Splice variant; also called delta 160 variant
The experiment in a line: FACS, 10 ug/ml antibody, HT-29 cells, 4 C. The method, then: as §1

For assay [3], the target named is T3, recombinant human RON SEMA and PSI domains (human, UniProt Q04912 25-571).
T3 construct: domain: SEMA+PSI; Commercial protein (R&D Systems); also called rhRON SEMA+PSI; hRON SEMA+PSI
The experiment in a line: ECL competition, MSP binding to coated hRON SEMA+PSI; competitor MSP; average n=3. The method, then: (§2) The biochemical neutralization assay measures inhibition of MSP binding to hRON by antibodies in hybridoma supernatants, using electrochemiluminescence (ECL). MA2400 96-well high binding plates (Meso Scale Discovery) were coated with 25 μl of 0.42 μg/mL hRON SEMA+PSI (an N-terminal portion of the ECD of hRON; R&D Systems) in PBS for one hour at room temperature with agitation. The plates were washed four times with PBS+0.1% Tween-20 (PBST), and blocked with 150 μl of charcoal-stripped fetal bovine serum (FBS) (Gibco). The hybridoma supernatant were added and incubated for 45 minutes at room temperature. After incubation, 5 μl of MSP (3 μg/mL) in charcoal stripped FBS was added to each well, and incubated for 45 minutes. The plate was washed four times with PBST, and 25 μl of 1 μg/mL biotinylated anti-MSP antibody (R&D Systems) was added to the plates for one hour at room temperature with agitation. The plates were washed four times with PBST, and incubated with 25 μl of 1 μg/mL ST-streptavidin (Meso Scale Discovery) for one hour at room temperature with agitation. The plates were washed four times with PBST, and 150 μl read buffer (Meso Scale Discovery) was added to each well before the plates were analyzed on a Sector Imager 2400 (Meso Scale Discovery) instrument. Antibodies 07F01, 18H09 and 29B06 each blocked MSP binding to hRON SEMA+PSI in this neutralization assay.
(§3) Antibodies 07F01, 12B11, 17F06, 18H09, and 29B06 were tested for inhibition of MSP binding to hRON SEMA+PSI, as measured by electrochemiluminescence (ECL) assay as described in Example 3. The antibodies (concentration range: 0.006-10 μg/mL) were incubated for 45 minutes at room temperature.

In assay [4] the target is T1, human wild-type RON (cell surface). The assay can be described thus: cell-based or functional assay.
The target in assay [5] is T3, recombinant human RON SEMA and PSI …. The experiment in a line: ECL competition assay: antibody titrated on plate-coated hRON SEMA+PSI; blocked ligand MSP, detected with biotinylated anti-MSP antibody. As for the experimental part: as §2, §3
In assay [6] the target is T4, recombinant human RON-ECD/mFc fusion protein (human, UniProt Q04912 25-957).
T4 construct: extracellular domain; also called rhRON ECD/mFc; rhRon ECD/mFc; not shown: THXmFC: Thrombin/His tag/Factor Xa-AJ mouse IgG-Fc
The experiment in a line: SPR, Ab captured on anti-mouse IgG, 25 C, AVG. The method, then: (§4) The binding affinities and kinetics of binding of antibodies 07F01, 29B06, 17F06, 18H09, and 12B11 to recombinant human RON-ECD/mFc fusion protein (rhRON ECD/mFc) and recombinant human RON SEMA and PSI domains (rhRON SEMA+PSI) (R&D Systems, Inc., Minneapolis, Minn.) were measured by surface plasmon resonance, using a Biacore T100 instrument (GE Healthcare, Piscataway, N.J.).
(§5) Rabbit anti-mouse IgGs (GE Healthcare) were immobilized on carboxymethylated dextran CM4 sensor chips (GE Healthcare) by amine coupling, according to a standard protocol. Analyses were performed at 25° C. and 37° C., using PBS containing 0.05% surfactant P20 as running buffer. The antibodies were captured in individual flow cells at a flow rate of 10 μl/min. Injection time was varied for each antibody to yield an Rmax between 30 and 60 RU. 250 μg/mL mouse Fc were injected at 30 μl/min for 120 seconds to block non-specific binding of antibodies to Fc portion of the protein when needed. Buffer, rhRon ECD/mFc or rhRON SEMA+PSI diluted in running buffer was injected sequentially over a reference surface (no antibody captured) and the active surface (antibody to be tested) for 300 seconds at 60 μl/minute. The dissociation phase was monitored for up to 3600 seconds. The surface was then regenerated with two 60-second injections of 10 mM Glycine-HCl, pH 1.7, at a flow rate of 60 μl/min. The rhRON ECD/mFc or rhRON SEMA+PSI concentration range tested was 0.625 nM to 20 nM.
(§6) Kinetic parameters were determined using the kinetic function of the BIAevaluation software (GE Healthcare) with double reference subtraction. Kinetic parameters for each antibody, kₐ (association rate constant), kd (dissociation rate constant) and KD (equilibrium dissociation constant) were determined.
(In SPR one partner is held on a chip, and binding of the other changes the refractive index at the surface.)

In assay [7] the target is T1, human wild-type RON (cell surface). The assay can be described thus: cell-based or functional assay. This is another data set of the same source.
The target in assay [8] is T3, recombinant human RON SEMA and PSI …. The assay can be described thus: SPR, Ab captured on anti-mouse IgG, 25 C, AVG. As for the experimental part:
as §4, §5

The target is the same in assay [9]. The experiment in a line: ECL competition, MSP binding to coated hRON SEMA+PSI; competitor MSP; average. The method, then: as §2, §3
Assay [10] concerns the target T4, recombinant human RON-ECD/mFc fusion …. The assay can be described thus: SPR, Ab captured on anti-mouse IgG, 37 C, n=1. The method, then:
as §4, §5, §6

In assay [11] the target is T3, recombinant human RON SEMA and PSI …. The assay can be described thus: SPR, Ab captured on anti-mouse IgG, 37 C, AVG. The method, then:
as §4, §5

Assay [12] deals with T4, recombinant human RON-ECD/mFc fusion …. The assay can be described thus: SPR, Ab captured on anti-mouse IgG, 37 C, AVG. The method, then:
as §4, §5, §6

Assay [13] shares this target. The assay can be described thus: SPR, Ab captured on anti-mouse IgG, 25 C, AVG; * Outside instrument limit of detection; 25 C, AVG of n=3. The method, then: as §4
(§7) Rabbit anti-mouse IgGs (GE Healthcare) were immobilized on carboxymethylated dextran CM4 sensor chips (GE Healthcare) by amine coupling, according to a standard protocol. Analyses were performed at 25° C. and 37° C., using PBS containing 0.05% surfactant P20 as running buffer. The antibodies were captured in individual flow cells at a flow rate of 10 μl/min. Injection time was varied for each antibody to yield an Rmax between 30 and 60 RU. 250 μg/mL mouse Fc were injected at 30 μl/min for 120 seconds to block non-specific binding of antibodies to Fc portion of the protein when needed. […] The dissociation phase was monitored for up to 3600 seconds. […]
as §6

For assay [14] the target is unchanged. The assay can be described thus: SPR, Ab captured on anti-mouse IgG, 25 C, AVG; * Outside instrument limit of detection. As for the experimental part: as §4, §7, §6
For assay [15], the target named is T3, recombinant human RON SEMA and PSI …. The assay can be described thus: SPR, Ab captured on anti-human IgG Fc, 37 C; 37 C, n=1.
For assay [16] the target is unchanged. The experiment in a line: SPR, Ab captured on anti-human IgG Fc, 37 C.
The target is the same in assay [17]. The experiment in a line: SPR, Ab captured on anti-human IgG Fc, 25 C.

B1: 18H09 (antibody, mouse IgG1, V domains shown)
VH: EVQLQESGPSLVKPSQTLSLTCYVTGDSITSDYWNWIRKFPGNKLEYMGYISYSGSTYYNPSLKSRISITRDTSKNQFYLRLNSVTTEDTATYYCARTHILTIAYWGQGTLVTVSA
VL: QAVVTQESALTTSPGETVTLTCRSSAGAVTTSNFANWVQEKPDHLFTGLIGDTNIRAPGVPARFSGSLIGDKAALTITGAQTEDEAIYFCALWYSNHYWVFGGGTKLTVLG
notes: Murine hybridoma monoclonal, IgG1/lambda (IGLC1); also called antibody 18H09
For the molecule B1, the “PC3 % cell surface binding” value in [1] came out at 99%. Besides, the “HT-29 % cell surface binding” value in assay [2] was determined as 98.3%. Further, the 50% inhibitory concentration (IC50) in assay [3] was found to be 910 pM. For the same molecule, the “Mean IC50 (nM), inhibition of MSP-dependent ERK phosphorylation, T47D cells” value in assay [4] was 0.71 nM. Further, the “IC50 (read off the curve)” value in assay [5] was approximately 700 pM. Besides, the Kd stood at 220 pM in [6], 8.6 pM in [8], 400 pM in [10] and 220 pM in assay [11]. The off-rate constant (koff) in [6] was found to be 5.7e-05 s⁻¹; in assay [8] it was 3.8e-06 s⁻¹; in [10], 0.0007 s⁻¹; in [11], 0.00012 s⁻¹. Moreover, the kon came out at 330000 M⁻¹ s⁻¹ in assay [6], 440000 M⁻¹ s⁻¹ in assay [8], 1.8e+06 M⁻¹ s⁻¹ in [10] and 580000 M⁻¹ s⁻¹ in assay [11]. Besides, the “Percent Inhibition of MSP-induced HPAF-II cell migration, antibody 2 ug/ml” value in [7] was determined as 107%. The “Maximum Neutralization (%)” value in assay [9] came out at 86.9%.

B2: 17F06 (antibody, mouse IgG2a, V domains shown)
VH: EVKLVESGGGLVKPGASLKLSCAASGFIFSSYGMSWVRQTSDKRLEWVASISSGGGTTYYLDTVKGRFTISRENAKDTLYLQMSGLKSEDTALYYCTRGQWLLKFAYWGQGTLVTVSA
VL: QLVLTQSSSASFSLGASAKLTCTLSSQHTTYTIEWYQQLPLKPPKYVMELKKDGSHSTGVGIPDRFSGSSSGADRYLTISNIQPEDEAIYICGVGETIEDQFVYVFGGGTKVTVLG
notes: Murine hybridoma monoclonal, IgG2a/lambda (IGLC2); also called antibody 17F06
Consider B2, for which the Kd was 210 pM in assay [12], less than 58.8 pM in assay [14], 9 pM in assay [8] and 130 pM in assay [11]. For the same molecule, the koff in assay [12] was 2.4e-05 s⁻¹; in assay [13], less than 1e-05 s⁻¹; in [8], 1.4e-06 s⁻¹; in assay [11] it was 2.1e-05 s⁻¹. Moreover, the on-rate (kon) in assay [12] was found to be 140000 M⁻¹ s⁻¹; in [6], 170000 M⁻¹ s⁻¹; in assay [8] it was 190000 M⁻¹ s⁻¹; in [11], 260000 M⁻¹ s⁻¹. In [1], the “PC3 % cell surface binding” value is 99.1%. Besides, in assay [2], the “HT-29 % cell surface binding” value was determined as 99%. Moreover, in [4], the “Mean IC50 (nM), inhibition of MSP-dependent ERK phosphorylation, T47D cells” value turned out to be 0.96 nM. For the same molecule, the “Percent Inhibition of MSP-induced HPAF-II cell migration, antibody 2 ug/ml” value in assay [7] was 70.7%. For the same molecule, the “Maximum Neutralization (%)” value in assay [9] is 7.9%.

B3: RON6 (antibody, V domains shown)
VH: QVQLVQSGPEVKKSGSSVKVSCKASGGTFSSDAITWVRQAPGQGLEWMGGIIPILGMANYAQKFQGRVTITADKSTNTAYMELSSLRSEDTAVYFCARVADYYGLGTYYWYFDLWGRGTLVTVSS
VL: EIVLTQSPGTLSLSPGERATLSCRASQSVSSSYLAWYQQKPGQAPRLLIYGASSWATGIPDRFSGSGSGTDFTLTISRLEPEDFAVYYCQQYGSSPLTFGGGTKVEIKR
B3: the on-rate (kon) in assay [15] turned out to be 1.9e+08 M⁻¹ s⁻¹. Further, in assay [16], the dissociation constant Kd was 1000 pM and the dissociation rate constant (koff) amounted to 0.19 s⁻¹. In addition, in [17], the dissociation constant (Kd) is 1100 pM, the off-rate (koff) worked out at 0.0026 s⁻¹ and the on-rate constant (kon) was determined as 2.3e+06 M⁻¹ s⁻¹.
